Measured values taken from patent US8013137B2, “Modified enteropeptidase protein” (National University Corporation Hokkaido University, priority 2006, dated 2011).

How the values were obtained:
[1] = test system: Pro-Phe-Arg-MCA; experiment: Activity assay of EP proteases and EP-treated hK8 samples with Pro-Phe-Arg-MCA (FIG. 4B middle); assay type: biochemical
Experimental: (§1) (A) A recombinant fusion protein of Medaka gelatinase A (5 μg) was separately incubated with active EP proteases (100 ng) at 37° C. for 1 h, and analyzed by SDS-PAGE. (B) A recombinant fusion protein of human kallikrein 8 (hK8) (5 μg) was incubated with active EP proteases (100 ng) at 37° C. for 2 h. After incubation, the samples were analyzed by SDS-PAGE (upper panel), or assayed for activity with Pro-Phe-Arg-MCA (middle panel), or Boc-Glu(OBzl)-Ala-Arg-MCA (lower panel). […] The samples were then analyzed by SDS-PAGE/Western blotting using anti-human tPA antibody (upper panel) or anti-His probe antibody (lower panel). The position of sctPA (58- and 61-kDa) detected with the antibodies is shown.
(§2) EP activity was routinely determined using the specific substrate Gly-Asp-Asp-Asp-Asp-Lys-β-naphthylamide (GD4K-βNA) (SEQ ID NO: 6) (Sigma) according to the method of Mikhailova and Rumsh (Mikhailova et al., FEBS Lett., 442:226-230 (1999)). Enzyme activity for various 4-methylcoumaryl-7-amide (MCA)-containing peptide substrates was determined by the method of Barrett (Barrett et al., J., Biochem. J., 187:909-912 (1980)). For kinetic studies, initial velocities, extrapolated from the plot of product versus time, were transformed into double-reciprocal plots (Lineweaver et al., J. Am. Chem. Soc., 56:658-663 (1934)). The maximum velocities (Vmax) and Km and kcat values were obtained from the intercepts of these plots. For all experiments, the results of at least three separate determinations are shown.
Next, a 35.5-kDa protein of human kallikrein 8 (hK8) in the same E. coli expression system was synthesized. Digestion with Medaka wild-type and mutant EP proteases generated 31.5-kDa active hK8 by cleaving the D4K sequence (SEQ ID NO: 1) (FIG. 4B, Top). […] The EP protease-treated samples were directly assayed for hK8 activity using Pro-Phe-Arg-MCA, a good synthetic peptide substrate of hK8 (Rajapakse et al., FEBS Lett., 579:6879-6884 (2005)). […] The substrate Boc-Glu(OBzl)-Ala-Arg-MCA, which is slightly cleaved by active hK8, was rapidly hydrolyzed with the samples treated with mammalian, but not Medaka, EP proteases (FIG. 4B, Bottom).

[2] = test system: GD4K-βNA; experiment: EP activity and kinetic study with specific substrate GD4K-βNA; assay type: biochemical; settings: for Km / kcat: substrate GD4K-βna
Experimental: (§3) (A) Active recombinant EP proteases were assayed using a GD4K-βNA (SEQ ID NO: 6) substrate as a substrate. Bovine (Nvg), bovine EP protease available from Novagen; Bovine (Neb), bovine EP protease available from NEB. (B) Active recombinant EP proteases were assayed using various synthetic peptide substrates. (C) Active EP proteases were analyzed by gelatin zymography. (D) Fibronectin (4 μg) was incubated with active EPs (100 ng) at 37° C. for 12 h. (E) Laminin ((10 μg) was incubated with active recombinant EPs (100 ng) at 37° C. for 12 h. (F) Two μg of the control protein containing the D4K site (SEQ ID NO: 1) was incubated with active recombinant EPs (100 ng) at 37° C. for 1 h.
(A) The purity of purified recombinant Medaka EP-1 and EP-2 protease was assessed by SDS-PAGE. Lane 1, Medaka EP fusion protein; lane 2, Medaka EP protease treated with immobilized trypsin; lane 3, Medaka EP protease purified using a resource Q column. (B) The enzyme activities of EP proteases were determined at various pHs using GD4K-βNA (SEQ ID NO: 6) as a substrate. (C) Recombinant Medaka trypsinogen was incubated at 37° C. with EPs for 15, 30 and 45 min. After incubation, samples were analyzed by SDS-PAGE and visualized by CBB staining (upper panel). The relative amount of the active form of Medaka trypsin at each time point were calculated based on the results shown in the upper panel (lower panel). The results are presented as the means (±SD) of three separate experiments.
as §2

[3] = test system: recombinant fusion protein of human kallikrein 8 (hK8); experiment: Cleavage of recombinant fusion protein of human kallikrein 8 (hK8); assay type: biochemical; settings: 37° C., 2 h, 100 ng EP
Experimental: as §1
(§4) The effect of Medaka EP serine protease on various fusion proteins containing a D4K-cleavage site (SEQ ID NO: 1) was examined. […]

[4] = test system: Boc-Glu(OBzl)-Ala-Arg-MCA, Z-Phe-Arg-MCA, and Pro-Phe-Arg-MCA; experiment: Amidolytic activity for synthetic MCA-containing peptide substrates (panel); assay type: biochemical; settings: FIG. 2B
[5] = test system: gelatin; experiment: Gelatin zymography; assay type: biochemical; settings: FIG. 2C
Experimental: as §3, §4

[6] = test system: recombinant Medaka trypsinogen; experiment: Activation of recombinant Medaka trypsinogen, SDS-PAGE; assay type: biochemical; settings: 37° C., 15, 30 and 45 min
[7] = Enzyme stability, residual activity using GD4K-βNA; assay type: physicochemical
Experimental: […] Aliquots of the reaction mixtures were taken at the indicated times for an activity assay using GD4K-βNA (SEQ ID NO: 6) as a substrate. The enzyme activities relative to that at 0-time are shown.
[…] The enzyme activity was measured at various time points (0 to 96 h) using GD4K-βNA (SEQ ID NO: 6) as a substrate.

[8] = test system: D4K-cleavage site-containing control protein; experiment: Cleavage of D4K-cleavage site-containing control protein (Novagen); assay type: biochemical; settings: 37° C., 1 h, 100 ng EP
Experimental: as §3, §4

[9] = test system: Human plasma fibronectin; experiment: Hydrolysis of fibronectin, SDS-PAGE; assay type: biochemical; settings: 37° C., 12 h, 100 ng EP
Experimental: as §3, §4

[10] = test system: mouse laminin; experiment: Hydrolysis of laminin, SDS-PAGE; assay type: biochemical; settings: 37° C., 12 h, 100 ng EP
Experimental: as §3, §4

[11] = test system: human fibrinogen; experiment: Hydrolysis of fibrinogen, SDS-PAGE; assay type: biochemical; settings: 37° C., 12 h, 100 ng EP
Experimental: (§5) (A) The specific activities of wild-type (EP-1) and mutant EP protease were determined using synthetic peptide substrates. (B) High-molecular-weight (HMW) kininogen (5 μg) was incubated with active EP proteases (100 ng) at 37° C. for 2 h and analyzed by SDS-PAGE. (C) Fibrinogen (10 μg) was incubated with active EP proteases (100 ng) at 37° C. for 12 h and analyzed by SDS-PAGE.
(§6) The effect of Medaka EP serine protease on various fusion proteins containing a D4K-cleavage site (SEQ ID NO: 1) was examined. Human plasma fibronectin (Chemicon, Temecula, Calif.), human fibrinogen (Merk Biosciences, Tokyo, Japan), human high-molecular-weight (HMW) kininogen (Calbiochem, La Jolla, Calif.), mouse laminin (Biomedical Technologies Inc., Stoughton, Mass.), D4K-cleavage site-containing (SEQ ID NO: 1) control protein (Novagen), Medaka gelatinase A (Ogiwara et al., Proc. Natl. Acad. Sci. USA, 102:8442-8447 (2005)) and trypsinogen (this study), human kallikrein 8 (hK8) (Rajapakse et al., FEBS Lett., 579:6879-6884 (2005)) and human tissue-type plasminogen activator (tPA) were incubated at 37° C. in 20 mM Tris.HCl buffer (pH 7.4) containing 50 mM NaCl and 2 mM CaCl2 with various EP serine proteases at ratios (w/w) ranging from 20:1 to 100:1. After incubation, samples were subjected to SDS-PAGE followed by Coomassie Brilliant Blue staining. […]

[12] = test system: recombinant fusion protein of Medaka gelatinase A; experiment: Cleavage of recombinant fusion protein of Medaka gelatinase A; assay type: biochemical; settings: 37° C., 1 h, 100 ng EP
[13] = test system: human single-chain tPA fusion protein; experiment: Cleavage of human single-chain tPA fusion protein, Western blotting; assay type: biochemical; settings: 37° C., 1 h, 100 ng EP
[14] = test system: GD4K-βNA and the three MCA-containing substrates; experiment: Specific activities of wild-type and mutant EP protease using synthetic peptide substrates (FIG. 3A); assay type: biochemical
Experimental: as §5, §2

[15] = test system: human high-molecular-weight (HMW) kininogen; experiment: Hydrolysis of HMW kininogen, SDS-PAGE; assay type: biochemical; settings: 37° C., 2 h, 100 ng EP
Experimental: as §5, §6

[16] = test system: medaka EP-2 protease; experiment: Inhibitor assay, enzyme activity measured using GD4K-βNA as a substrate; assay type: biochemical, medaka (Oryzias latipes); settings: inhibitor 0.1 mg/ml; GD4K-βNA substrate; 10 min preincubation
[17] = test system: medaka EP-1 protease; experiment: as above; assay type: biochemical, medaka (Oryzias latipes); settings: inhibitor 0.1 mg/ml; GD4K-βNA substrate; 10 min preincubation

B1: Porcine: active recombinant enzyme of the porcine EP serine protease domain (Ile800 to His1034) (protein)
chain: IVGGNDSREGAWPWVVALYYNGQLLCGASLVSRDWLVSAAHCVYGRNLEPSKWKAILGLHMTSNLTSPQIVTRLIDEIVINPHYNRRRKDSDIAMMHLEFKVNYTDYIQPICLPEENQVFPPGRICSIAGWGKVIYQGSPADILQEADVPLLSNEKCQQQMPEYNITENMMCAGYEEGGIDSCQGDSGGPLMCLENNRWLLAGVTSFGYQCALPNRPGVYARVPKFTEWIQSFLH
enzyme activity of the EP protease itself with Pro-Phe-Arg-MCA [1]: considerable enzyme activities were detected | Km [2]: 400 µM | kcat [2]: 8.83 s⁻¹ | cleavage of hK8 fusion protein [3]: extensively degraded the substrate

B2: EP-1: recombinant serine protease domain of Medaka (Oryzias latipes) enteropeptidase-1, wild type, SEQ ID NO: 2 (protein)
chain: VVGGVNAEKGAWPWMVSLHWRGRHGCGASLIGRDWLLTAAHCVYGKNTHLQYWSAVLGLHAQSSMNSQEVQIRQVDRIIINKNYNRRTKEADIAMMHLQQPVNFTEWVLPVCLASEDQHFPAGRRCFIAGWGRDAEGGSLPDILQEAEVPLVDQDECQRLLPEYTFTSSMLCAGYPEGGVDSCQGDSGGPLMCLEDARWTLIGVTSFGVGCGRPERPGAYARVSAFTSWIAETRRSSFSDLD
modifications: Oryzias latipes
amidolytic activities for synthetic MCA-containing peptide substrates compared with mammalian EP proteases [4]: much lower than those of the EP proteases of mammalian origin | enzyme activity of the EP protease itself with Pro-Phe-Arg-MCA [1]: none of the Medaka EP proteases (wild-type EP-1, K63R, E173A, or E193A) showed any significant enzyme activity | hydrolysis of gelatin [5]: Little or no hydrolysis | conversion of recombinant Medaka trypsinogen to active trypsin [6]: converted to active trypsin by EP-1 faster than by EP-2 | stability of enzyme activity on storage ([7]; 4° C.): the initial enzyme activity was retained at both temperatures for at least six months | loss of enzyme activity ([7]; 37° C., neutral pH, after 4 days of incubation): about 30% | stability of enzyme activity on storage ([7]; −20° C.): the initial enzyme activity was retained at both temperatures for at least six months | rate of GD4K-βNA cleavage compared with porcine and bovine enzymes ([2]; FIG. 2A): at a rate comparable to those of the porcine and bovine enzymes | activity for GD4K-βNA relative to EP-2 ([2]; FIG. 8B): approximately three times more active than EP-2 | pH of maximal activity for GD4K-βNA ([2]; serine protease domain, FIG. 8B): 8 | Km [2]: 700 µM | kcat [2]: 15.7 s⁻¹ | cleavage of fusion protein containing an EP-cleavage site (Novagen) [8]: specifically cleaved the fusion protein to generate two polypeptides having expected molecular masses of 16- and 32-kDa | hydrolysis of fibronectin [9]: Little or no hydrolysis | hydrolysis of laminin [10]: Little or no hydrolysis

B3: E173A: EP-1 with E173A mutation, SEQ ID NO: 4 (protein)
chain: VVGGVNAEKGAWPWMVSLHWRGRHGCGASLIGRDWLLTAAHCVYGKNTHLQYWSAVLGLHAQSSMNSQEVQIRQVDRIIINKNYNRRTKEADIAMMHLQQPVNFTEWVLPVCLASEDQHFPAGRRCFIAGWGRDAEGGSLPDILQEAEVPLVDQDACQRLLPEYTFTSSMLCAGYPEGGVDSCQGDSGGPLMCLEDARWTLIGVTSFGVGCGRPERPGAYARVSAFTSWIAETRRSSFSDLD
modifications: Oryzias latipes
nonspecific proteolytic activity for human fibrinogen [11]: retained a low nonspecific proteolytic activity | cleavage of Medaka gelatinase A fusion protein [12]: no serious reduction of the D4K (SEQ ID NO: 1) cleaving activity | enzyme activity of the EP protease itself with Pro-Phe-Arg-MCA [1]: none of the Medaka EP proteases (wild-type EP-1, K63R, E173A, or E193A) showed any significant enzyme activity | cleavage of human single-chain tPA fusion protein [13]: no serious reduction of the D4K (SEQ ID NO: 1) cleaving activity | Km [2]: 300 µM | kcat [2]: 5.33 s⁻¹ | enzyme activity for synthetic peptide substrates compared with the wild-type enzyme [14]: significantly lower activities than the wild-type enzyme toward all the synthetic substrates tested | nonspecific proteolytic activity for human HMW kininogen [15]: retained a low nonspecific proteolytic activity | cleavage of hK8 fusion protein [3]: no serious reduction of the D4K (SEQ ID NO: 1) cleaving activity

B4: SBTI (protein)
chain: DFVLDNEGNPLENGGTYYILSDITAFGGIRAAPTGNERCPLTVVQSRNELDKGIGTIISSPYRIRFIAEGHPLSLKFDSFAVIMLCVGIPTEWSVVEDLPEGPAVKIGENKDAMDGWFRLERVSDDEFNNYKLVFCPQQAEDDKCGDIGISIDHDDGTRRLVVSKNKPLVVQFQKLDKESL
Inhibition (%) EP-2 [16]: 99% | Inhibition (%) EP-1 [17]: 99%
